Results published in paper PMC6041257.

B1: GLI1 (transfected, wild type) [human] / SUFU (transfected, HEK293T) [not stated] (parent)
chain 1: MFNSMTPPPISSYGEPCCLRPLPSQGAPSVGTEGLSGPPFCHQANLMSGPHSYGPARETNSCTEGPLFSSPRSAVKLTKKRALSISPLSDASLDLQTVIRTSPSSLVAFINSRCTSPGGSYGHLSIGTMSPSLGFPAQMNHQKGPSPSFGVQPCGPHDSARGGMIPHPQSRGPFPTCQLKSELDMLVGKCREEPLEGDMSSPNSTGIQDPLLGMLDGREDLEREEKREPESVYETDCRWDGCSQEFDSQEQLVHHINSEHIHGERKEFVCHWGGCSRELRPFKAQYMLVVHMRRHTGEKPHKCTFEGCRKSYSRLENLKTHLRSHTGEKPYMCEHEGCSKAFSNASDRAKHQNRTHSNEKPYVCKLPGCTKRYTDPSSLRKHVKTVHGPDAHVTKRHRGDGPLPRAPSISTVEPKREREGGPIREESRLTVPEGAMKPQPSPGAQSSCSSDHSPAGSAANTDSGVEMTGNAGGSTEDLSSLDEGPCIAGTGLSTLRRLENLRLDQLHQLRPIGTRGLKLPSLSHTGTTVSRRVGPPVSLERRSSSSSSISSAYTVSRRSSLASPFPPGSPPENGASSLPGLMPAQHYLLRARYASARGGGTSPTAASSLDRIGGLPMPPWRSRAEYPGYNPNAGVTRRASDPAQAADRPAPARVQRFKSLGCVHTPPTVAGGGQNFDPYLPTSVYSPQPPSITENAAMDARGLQEEPEVGTSMVGSGLNPYMDFPPTDTLGYGGPEGAAAEPYGARGPGSLPLGPGPPTNYGPNPCPQQASYPDPTQETWGEFPSHSGLYPGPKALGGTYSQCPRLEHYGQVQVKPEQGCPVGSDSTGLAPCLNAHPSEGPPHPQPLFSHYPQPSPPQYLQSGPYTQPPPDYLPSEPRPCLDFDSPTHSTGQLKAQLVCNYVQSQQELLWEGGGREDAPAQEPSYQSPKFLGGSQVSPSRAKAPVNTYGPGFGPNLPNHKSGSYPTPSPCHENFVVGANRASHRAAAPPRLLPPLPTCYGPLKVGGTNPSCGHPEVGRLGGGPALYPPPEGQVCNPLDSLDLDNTQLDFVAILDEPQGLSPPPSHDQRGSSGHTPPPSGPPNMAVGNMSVLLRSLPGETEFLNSSA
chain 2: MAELRPSGAPGPTAPPAPGPTAPPAFASLFPPGLHAIYGECRRLYPDQPNPLQVTAIVKYWLGGPDPLDYVSMYRNVGSPSANIPEHWHYISFGLSDLYGDNRVHEFTGTDGPSGFGFELTFRLKRETGESAPPTWPAELMQGLARYVFQSENTFCSGDHVSWHSPLDNSESRIQHMLLTEDPQMQPVQTPFGVVTFLQIVGVCTEELHSAQQWNGQGILELLRTVPIAGGPWLITDMRRGETIFEIDPHLQERVDKGIETDGSNLSGVSAKCAWDDLSRPPEDDEDSRSICIGTQPRRLSGKDTEQIRETLRRGLEINSKPVLPPINPQRQNGLAHDRAPSRKDSLESDSSTAIIPHELIRTRQLESVHLKFNQESGALIPLCLRGRLLHGRHFTYKSITGDMAITFVSTGVEGAFATEEHPYAAHGPWLQILLTEEFVEKMLEDLEDLTSPEEFKLPKEYSWPEKKLKVSILPDVVFDSPLH

Variants of: B1
Test: co-immunoprecipitation (IP: HA (SUFU-HA), IB: Flag (GLI1-Flag))
Conditions: with SUFU (transfected, HEK293T); HEK293T cells; SUFU-HA + GLI1-Flag + MEKK3-Flag co-expressed; parent: 3

Variant | screen value
chain 1 S201D S204D S243D S968D T1074D S1078D | 3.9

Same assay, conditions: with SUFU (transfected, HEK293T); HEK293T cells; SUFU-HA + GLI1-Flag + Vector (no MEKK3); parent: 1

Variant | ratio to parent
chain 1 S201D S204D S243D S968D T1074D S1078D | 3
